Measured values reported in the RNAGym collection of RNA variant scans (doi:10.7554/elife.80360).

B1: Hammerhead Ribozyme (parent)
chain: ACCGGAUGUGCUUUCCGGUCUGAUGAGUCCGUGAGGACGAAACAG

Variants of: B1
Test: self-cleavage, relative activity (ratio to wild type); higher = more cleavage; co-transcriptional
With U21G U24C the self-cleavage was 0.391.
With G27U G45A the self-cleavage was 0.363.
For G27U G45U, the self-cleavage was 0.488.
In the case of G8U G45A, the self-cleavage is reported as 0.744.
G8U G45U gave a self-cleavage of 0.826.
U28G U32C showed a self-cleavage of 0.664.
Variant A34U A41G has a self-cleavage of 0.305.
With A23G G33A the self-cleavage was 0.465.
With C16U U32C the self-cleavage was 0.879.
For C15U U28A, the self-cleavage was 0.516.
For U13A U28A, the self-cleavage was 1.1.
Variant G17C G25A has a self-cleavage of 0.362.
A23C G45U showed a self-cleavage of 0.377.
With G5U U28A the self-cleavage was 0.361.
In the case of A23C U24G, the self-cleavage is reported as 0.464.
For A26G U28G, the self-cleavage was 0.335.
With G5U U24A the self-cleavage was 0.809.
For A6G U24C, the self-cleavage was 0.944.
G10U A40U gave a self-cleavage of 0.338.
Work on C3U U7C yielded a self-cleavage of 0.743.
With C3U U7G the self-cleavage was 1.25.
Variant G4U U14C has a self-cleavage of 0.416.
In the case of U13C C43U, the self-cleavage is reported as 0.499.
In the case of U14G A41G, the self-cleavage is reported as 0.3.
A1U G22A showed a self-cleavage of 0.372.
Work on U12G G18A yielded a self-cleavage of 0.583.
C29U G31A gave a self-cleavage of 0.994.
C3U G10C gave a self-cleavage of 1.05.
With C3U G10U the self-cleavage was 1.22.
For G5C C16G, the self-cleavage was 0.716.
For G25C C43G, the self-cleavage was 0.235.
For U7C C20G, the self-cleavage was 0.306.
With U12G C38U the self-cleavage was 1.08.
For U12C A42U, the self-cleavage was 0.364.
Variant G31A A41U has a self-cleavage of 0.399.
Variant C11G G22U has a self-cleavage of 0.378.
Work on G4C U7C yielded a self-cleavage of 0.353.
Variant C2G G45C has a self-cleavage of 0.331.
Variant G8A G33A has a self-cleavage of 0.9.
U12C G18U showed a self-cleavage of 0.626.
Work on C43A A44U yielded a self-cleavage of 0.391.
Work on U9G G17C yielded a self-cleavage of 0.32.
For U21A A26G, the self-cleavage was 0.346.
G25A C30A showed a self-cleavage of 0.369.
Variant C16G A34G has a self-cleavage of 0.655.
C16G A34U showed a self-cleavage of 0.709.
In the case of A6U G22A, the self-cleavage is reported as 0.289.
In the case of C11U G18U, the self-cleavage is reported as 0.469.
Work on C15A U28G yielded a self-cleavage of 0.378.
In the case of U19A A40U, the self-cleavage is reported as 0.35.
Work on G25U G27A yielded a self-cleavage of 0.34.
A23C U28G showed a self-cleavage of 0.398.
Work on A6U G31A yielded a self-cleavage of 0.748.
Work on A41G A42C yielded a self-cleavage of 0.294.
In the case of A41G A42U, the self-cleavage is reported as 0.335.
Work on A41G A42G yielded a self-cleavage of 0.335.
Work on C3A G10C yielded a self-cleavage of 0.587.
Variant A1U C2A has a self-cleavage of 0.672.
For A6G U7C, the self-cleavage was 1.29.
In the case of G10C U14A, the self-cleavage is reported as 0.796.
In the case of C38G G45C, the self-cleavage is reported as 0.491.
Variant C38G G45A has a self-cleavage of 0.461.
Work on G22A C30U yielded a self-cleavage of 0.417.
G31C G39U gave a self-cleavage of 0.373.
In the case of A40U, the self-cleavage is reported as 0.366.
Work on G4U A23G yielded a self-cleavage of 0.303.
U7G A23C gave a self-cleavage of 0.243.
U14C G36A gave a self-cleavage of 0.552.
With U24A A41U the self-cleavage was 0.279.
With U7G C30G the self-cleavage was 1.19.
G36C G39U showed a self-cleavage of 0.325.
Variant G31C A42G has a self-cleavage of 0.232.
G36A A44U showed a self-cleavage of 0.332.
In the case of C3G G22U, the self-cleavage is reported as 0.276.
A1G U28G showed a self-cleavage of 1.33.
In the case of U24C G45A, the self-cleavage is reported as 0.465.
With U9C A34C the self-cleavage was 0.94.
With C2A U19C the self-cleavage was 0.38.
For G4U G45U, the self-cleavage was 0.446.
Work on A1G C43U yielded a self-cleavage of 0.597.
Variant G17C G22A has a self-cleavage of 0.274.
Variant C38G A40C has a self-cleavage of 0.211.
With C3G A23G the self-cleavage was 0.257.
A37U C38G showed a self-cleavage of 0.384.
Work on U19G C38U yielded a self-cleavage of 0.364.
For G25C A26G, the self-cleavage was 0.265.
In the case of A6G C30U, the self-cleavage is reported as 0.634.
G4A G22C gave a self-cleavage of 0.354.
G5C G33A gave a self-cleavage of 0.776.
In the case of C3G C16U, the self-cleavage is reported as 0.327.
In the case of C3U G27C, the self-cleavage is reported as 0.599.
For G36U A40C, the self-cleavage was 0.43.
C38A A41C gave a self-cleavage of 0.287.
With U7G G10C the self-cleavage was 1.74.
Work on U9G U12G yielded a self-cleavage of 0.784.
G27C A37G gave a self-cleavage of 0.677.
In the case of G18U G25A, the self-cleavage is reported as 0.369.
G18U G25C gave a self-cleavage of 0.322.
For A41G A44C, the self-cleavage was 0.391.
Variant A41G A44U has a self-cleavage of 0.322.
With A1U G39A the self-cleavage was 0.349.
C3A G31C gave a self-cleavage of 0.791.
G22C A40U showed a self-cleavage of 0.342.
C2A A23C gave a self-cleavage of 0.297.
For C3G G17A, the self-cleavage was 0.511.
For U28A A41C, the self-cleavage was 0.277.
G33A G39A gave a self-cleavage of 0.429.
For A26G A34C, the self-cleavage was 0.346.
C30A G35C gave a self-cleavage of 0.793.
Variant U7G U9A has a self-cleavage of 1.19.
Variant U24G G33U has a self-cleavage of 1.02.
For C11A C30G, the self-cleavage was 0.955.
With A26U G39A the self-cleavage was 0.366.
For U14A C29G, the self-cleavage was 0.562.
In the case of G10U C29A, the self-cleavage is reported as 0.658.
G8U C43G showed a self-cleavage of 0.333.
Work on A1U U21A yielded a self-cleavage of 0.614.
A26C U32G gave a self-cleavage of 0.42.
A26C U32A gave a self-cleavage of 0.659.
For U9A A44C, the self-cleavage was 0.523.
With U9A A34C the self-cleavage was 1.2.
G31C A40G gave a self-cleavage of 0.302.
U24C G33C showed a self-cleavage of 1.15.
For U14G G35C, the self-cleavage was 0.509.
In the case of A34G C43U, the self-cleavage is reported as 0.393.
G10C G39C gave a self-cleavage of 0.324.
A37G C43U gave a self-cleavage of 0.33.
In the case of G18C G27A, the self-cleavage is reported as 0.416.
In the case of A26C A37C, the self-cleavage is reported as 0.518.
For U13A A37U, the self-cleavage was 0.908.
For G25C G36A, the self-cleavage was 0.305.
In the case of G8C A44G, the self-cleavage is reported as 1.47.
U24G C43U showed a self-cleavage of 0.463.
With U7G G45A the self-cleavage was 0.559.
Work on G17C A40U yielded a self-cleavage of 0.3.
With G18C G39C the self-cleavage was 0.289.
Variant C2G U32G has a self-cleavage of 0.379.
Work on U7A U19A yielded a self-cleavage of 0.377.
In the case of G10C A42U, the self-cleavage is reported as 0.277.
Variant U7C C15G has a self-cleavage of 0.667.
Work on U7C C15U yielded a self-cleavage of 0.995.
Variant G22U has a self-cleavage of 0.362.
With C3U U28G the self-cleavage was 0.505.
U24A U32G showed a self-cleavage of 0.644.
For C3U G17A, the self-cleavage was 1.03.
For U24A G33C, the self-cleavage was 1.21.
In the case of U24A G33A, the self-cleavage is reported as 1.
Variant A6G G22U has a self-cleavage of 0.28.
A34U G45U showed a self-cleavage of 0.625.
In the case of A1G G10U, the self-cleavage is reported as 1.99.
Variant A41U A44U has a self-cleavage of 0.378.
U9A C38G showed a self-cleavage of 0.682.
C15A A40C showed a self-cleavage of 0.361.
Variant G4C U19A has a self-cleavage of 0.283.
With C29A C30A the self-cleavage was 0.442.
C16A A42C gave a self-cleavage of 0.399.
G31U A34C showed a self-cleavage of 0.84.
Work on G31U A34U yielded a self-cleavage of 0.844.
For G25U G33A, the self-cleavage was 0.374.
Work on G5C U24A yielded a self-cleavage of 0.648.
Work on G27A A41U yielded a self-cleavage of 0.319.
With C43G A44U the self-cleavage was 0.359.
In the case of U9A C43G, the self-cleavage is reported as 0.458.
U14G A34G gave a self-cleavage of 0.652.
C3A C38U showed a self-cleavage of 0.515.
Variant G8A A26C has a self-cleavage of 0.577.
Work on C16A A34U yielded a self-cleavage of 0.719.
